The values below are quoted from earlier work in publication PMC9776395.

Usually pKa stands for the pH at which an ionisable group is half protonated.

The data set deals with His193 (UniProt position 193, WVLGEHGDSSV). The data set is described as follows: kinetics. The note with it: Enzyme-NADH complex binding pyruvate (pyruvate reduction direction).

Consider “L-lactate dehydrogenase A chain (LDHA, M subunit, LDH5 homotetramer) (Homo sapiens)”, for which the pKa is listed as 7.31.
